This passage reports Kd results from publication doi:10.1101/2025.07.03.663104.

This assay concerns the target OsPR5-His (rice (Oryza sativa)) (UniProt P31110). Nature of the assay: BLI. For orientation: Biolayer interferometry detects binding as a change in optical thickness at a sensor tip.

Chain of OsPR5-His (rice (Oryza sativa)) (P31110 27-177): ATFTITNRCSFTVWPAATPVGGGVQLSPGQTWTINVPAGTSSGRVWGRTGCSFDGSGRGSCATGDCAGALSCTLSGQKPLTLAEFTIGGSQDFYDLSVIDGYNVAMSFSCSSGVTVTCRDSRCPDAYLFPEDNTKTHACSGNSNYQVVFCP

Usually Kd stands for the concentration at which binding is half-saturated. Higher therefore signals weaker binding. “ThBP15k (recombinant, no tag named) (natural protein)” yielded a Kd of 25.9 nM. The substance GBP-His (natural protein) returned a dissociation constant Kd of 0.745 nM.
